Data on 2 proteins can be found in PMC11615320 (Communications Biology, 2024).

Changes are numbered by the printed parent chain. In names and notes the source's numbering stands.

Series [1] deals with the molecule itself. The series can be described thus: single-molecule TIRF microscopy, real-time dissociation.
Series [2] deals with the molecule itself. The experiment in a line: single-molecule TIRF microscopy, kinetics.
Series [3] concerns the molecule itself. The series can be described thus: single-molecule TIRF microscopy with step-photobleaching and intensity counting.

B1: cytosolic domain of Synaptotagmin-1 (Syt-1), residues 79 to 421, wild type (domain or fragment, rat, UniProt P21707 79-421, looked up)
chain: CKKSLFKKKNKKKGKEKGGKNAINMKDVKDLGKTMKDQALKDDDAETGLTDGEEKEEPKEEEKLGKLQYSLDYDFQNNQLLVGIIQAAELPALDMGGTSDPYVKVFLLPDKKKKFETKVHRKTLNPVFNEQFTFKVPYSELGGKTLVMAVYDFDRFSKHDIIGEFKVPMNTVDFGHVTEEWRDLQSAEKEEQEKLGDIAFSLRYVPTAGKLTVVILEAKNLKKMDVGGLSDPYVKIHLMQNGKRLKKKKTTIKKNTLNPYYNESFSFEVPFEQIQKVQVVVTVLDYDKIGKNDAIGKVFVGYNSTGAELRHWSDMLANPRRPIAQWHTLQVEEEVDAMLAVKK
modifications: AlexaFluor 647 maleimide or AlexaFluor 488 maleimide on Cys79
Consider B1, for which the koff (as a rule, the first-order rate constant of dissociation) in series [1] stood at 0.0024 ± 0.0004 s⁻¹. In series [2], the “KD of the large clusters” value was found to be 6 ± 2 nM and the “KD of the small clusters” value stood at 40 ± 8 nM. In series [3], the stoichiometry N (commonly the number of molecules, sites or subunits per partner or assembly) is 5 ± 2 copies.

B2: cytosolic domain (residues 79 to 421) of the Syt-1 F349A mutant (domain or fragment, rat, UniProt P21707 79-421, looked up)
chain: B1 chain with F271A
modifications: AlexaFluor 647 maleimide or AlexaFluor 488 maleimide on Cys79
Take B2: in series [1], the koff stood at 0.0017 ± 0.0003 s⁻¹. Moreover, the Kd – broadly, a measure of binding affinity in units of concentration – in series [2] was found to be 45 ± 15 nM.
